Measurements from patent US20240293570A1 (priority 2021, published 2024).
Where two headings read alike, the source gives them in different places. *1 amine or outer side, *2 acyl side, *3 side chain or, on linkers, in order; H or OH if unused. Where a SMILES comes first, the peptide text is derived from it. [ ]: non-standard residue; d: D form. The star is where a group is joined. Exatecan = CC[C@@]1(O)C(=O)OCc2c1cc1n(c2=O)Cc2c-1nc1cc(F)c(C)c3c1c2[C@@H](N*)CC3; Propanoyl(3-maleimido) = O=C1C=CC(=O)N1CCC(=O)*; X1 = O=C(CN1CCOCCN([*:1])CCOCC1)[*:2]; NHCH2OCH2CO = O=C(COCN[*:1])[*:2]

What was measured:
[1] = Stability (placement) test of ADCs at 40° C. in dark for 14 days, DAR and polymer content; assay type: physicochemical
Protocol: (§1) Polymers (high molecular components) of the antibody-drug conjugates were tested using molecular exclusion high-performance liquid chromatography (SE-HPLC). A Biocore SEC chromatographic column (7.8×300 mm, […]) was used, and the mobile phase was 50 mM phosphate containing 300 mM sodium chloride (pH 6.8), with a flow rate of 0.5 mL/min. Samples of […] and 10 μl were injected. […] The polymer content of an antibody-drug conjugate was calculated using an area normalization method.
(§2) A drug-antibody conjugating ratio (also known as drug-antibody ratio, abbreviated as DAR) of the antibody-drug conjugate was tested using reversed-phase high-performance liquid chromatography-mass chromatography (RP-HPLC-MS). The ADC sample was diluted with 50 mmol/L Tris buffer (pH 8.0) to 1 mg/ml. A fresh dithiothreitol (DTT) stock solution was added to achieve a final DTT concentration of 50 mmol/L. Incubation was performed at 37° C. for 30 minutes. A PLRP-S chromatographic column (1000 Å pores, 2.1×50 mm, 5) μm) was used, and the column temperature was 70° C. The flow rate was 0.25 mL/min. […] of sample was injected; the mobile phase A was an aqueous solution of 0.1% formic acid (V/V) and 0.025% trifluoroacetic acid (V/V), and the mobile phase B was an acetonitrile solution of 0.1% formic acid (V/V) and 0.025% trifluoroacetic acid (V/V); the running time was 0-3 minutes, where 27% of mobile phase B ran for 3 minutes, and the mobile phase B ran from 27% to 49% within 3-25 minutes, from 49% to 95% within 25-26 minutes, at 95% within […], from 95% to 27% within 30-31.5 minutes, and at 27% for 31.5-45 minutes. […] Mass spectrometry drying gas was at a temperature of 350° C. and a flow rate of 7.0 L/min, the pressure of an atomizer was 40 psi, capillary voltage was positive 3000V and negative 3000V, and the mass range was 500-1600 m/z. The molecular weight of each mass spectrometry peak (ranging from 20000 to 70000) was calculated by deconvolution and compared with light and heavy chain molecular weights of un-conjugated antibodies to calculate a drug load at each peak, so as to determine the load of a corresponding ultraviolet peak. Area percentages of heavy and light chain ultraviolet peaks were calculated through integration, and a weighted average DAR of the antibody-drug conjugate was calculated by combining the area percentages with the drug load distribution of each peak.
Stability testing method: The stability of the obtained ADCs was tested for 14 days. The ADCs were placed at 40° C. in dark. Sampling points were days 0, 7, and 14. The polymer content and DAR value of samples at different sampling points were tested according to the method in Experimental Example 1.

[2] = Plasma stability of ADCs, generated payload by LC-MS/MS, mouse plasma; assay type: in vitro ADME, CD-1 mice; settings: 37° C., 100 μg/mL, up to 21 d, FIG. 7-9
Protocol: (§3) In order to further evaluate the characteristics of ADCs, the plasma stability of ADCs was tested. The plasma stability was tested by the following steps:
(§4) A test sample stock solution was diluted with ultra-pure water into a working solution having a concentration of 2.5 mg/mL. The working solution was prepared as needed and used at room temperature.
(§5) Follow the following steps to test plasma samples: • (1) 980 μL of plasma was collected from blank CD-1 mice, monkeys, and humans (experimental group N=2, control group N=1) and pre-incubated at 37° C. for 5 minutes; • (2) 20 μL of test compound working solution (or positive control drug (payload) working solution) was added, followed by vortex mixing (final concentration of the test compound was 100 μg/mL, and final concentration of the positive control drug was 1 μM). 50 μL of plasma sample was immediately added into 150 μL of ice precipitant, followed by vortex mixing as a 0 h sample; • (3) The remaining plasma samples were sealed and further incubated at 37° C., and 50 μL of each plasma sample was pipetted into 150 μL of ice precipitant according to preset time points in Table 3, followed by vortex mixing; […]
(§6) The samples were analyzed using liquid chromatography-tandem mass spectrometry (LC-MS/MS) to measure the quantity of a generated payload, where the quantities of two payloads were measured for dual toxin ADCs respectively.

[3] = assay type: physicochemical; settings: ADC with Her2 antibody, RP-HPLC-MS
Protocol: as §2

[4] = Naked antibody content of antibody-drug conjugates by hydrophobic interaction chromatography (HIC); assay type: physicochemical; settings: ADC with Her2 antibody
Protocol: The content of naked antibodies in the antibody-drug conjugate was tested using hydrophobic interaction chromatography (HIC). A Biocore HIC-Butyl chromatographic column (4.6×150 mm, 5 μm) was used. The mobile phase A was a 100 mM phosphate aqueous solution containing 2 M ammonium sulfate (pH 7.0), and the mobile phase B was a 100 mM phosphate aqueous solution (pH 7.0): isopropanol=80:20 (V/V). Samples of 50 μg and 10 μl were injected. The mobile phase A at the flow rate of 1 mL/min ran at 100% for 3 minutes. Within 3-25 minutes, the mobile phase B ran from […] to 100%, while the mobile phase B decreased to 0% at 25.1 and ran to 30 minutes. […] The naked antibody content of the antibody-drug conjugate was calculated using an area normalization method based on the retention time of a naked antibody peak located by the antibody of the antibody-drug conjugate.

[5] = Plasma stability of ADCs, generated payload by LC-MS/MS, human plasma; assay type: in vitro ADME, humans; settings: 37° C., 100 μg/mL, up to 21 d, FIG. 7-9
Protocol: as §3, §4, §5, §6

[6] = Polymer (high molecular component) content of antibody-drug conjugates by SE-HPLC; assay type: physicochemical; settings: ADC with Her2 antibody
Protocol: as §1

[7] = Plasma stability of ADCs, generated payload by LC-MS/MS, monkey plasma; assay type: in vitro ADME, monkeys; settings: 37° C., 100 μg/mL, up to 21 d, FIG. 7-9
Protocol: as §3, §4, §5, §6

gastric cancer NCI-N87 = assay: In vivo anti-tumor effect, gastric cancer NCI-N87 tumor model; design: species or system mouse; settings: NCI-N87 subcutaneous model, FIG. 10, FIG. 11
Protocol: Tumor cells (ovarian cancer SKOV-3, gastric cancer NCI-N87, and breast cancer JIMT-1) were cultured in a medium and maintained in a 37° C. saturated humidity incubator containing 5% CO2, respectively.
Tumor cells in a logarithmic growth phase were collected and re-suspended in a basic medium, and the concentration of cells was adjusted to 4×10^7/mL. Under sterile conditions, 0.1 mL of cell suspension was inoculated subcutaneously into the right armpit of a mouse at a concentration of 4×10^6 Cells/0.1 mL/mouse.
When the tumor volume reached around 200 mm^3, animals were randomly grouped according to the tumor volume, where the difference in tumor volume between the groups was less than 10% of the mean. The grouping day was recorded as Day 0, and administration started according to the body weight of the animals. In the administration period, if the body weight of individual animals decreased by more than 15% compared to that on Day 0 (BWL≥15%), the administration was stopped until the body weight of the animals recovered (BWL<15%), and then the administration recovered.
During the experiment, the body weight of the animals and the tumor volume were measured 2 times a week, and clinical symptoms of the animals were observed and recorded every day.

Row | Structure (SMILES) | DAR ([1]; Day 0, 40° C. in dark) | Polymer content (%) ([1]; Day 0, 40° C. in dark) | DAR ([1]; Day 7, 40° C. in dark) | Polymer content (%) ([1]; Day 7, 40° C. in dark) | DAR ([1]; Day 14, 40° C. in dark) | Polymer content (%) ([1]; Day 14, 40° C. in dark) | stability in the plasma of mice [2] | DAR [3] | Naked antibody content (%) [4] | stability in the plasma of humans [5] | Polymer content (%) [6] | stability in the plasma of monkeys [7] | in vivo anti-tumor effect on gastric cancer (gastric cancer NCI-N87)
1 | C=C1C[C@@H]2CC[C@@]34C[C@H]5OC6C(O[C@H]7CC[C@H](CC(=O)C[C@@H]8[C@@H](OC)[C@@H](C[C@H](O)CNC(=O)CNC(=O)[C@H](Cc9ccccc9)NC(=O)CNC(=O)CNC(=O)CCOCCOCCN(CCOCCOCCC(=O)NCC(=O)NCC(=O)N[C@@H](Cc9ccccc9)C(=O)NCC(=O)NCOCC(=O)N[C@H]9CCc%10c(C)c(F)cc%11nc%12c(c9c%10%11)Cn9c-%12cc%10c(c9=O)COC(=O)[C@]%10(O)CC)C(=O)CN9CCOCCOCCOCCOCCN(C(=O)CCOCCOCCOCCOCCC%10C(=O)C=CC%10=O)CCOCCOCCOCCOCC9)O[C@H]8C[C@H]8O[C@@H](CC[C@@H]1O2)C[C@@H](C)C8=C)O[C@@H]7[C@@H]6O3)[C@H]5O4 [Example 13] | 4.02 | 0.77% | 4.02 | 0.78% | 4.04 | 0.91% | significantly better | 4.02 | 5.02% | significantly better | 0.77% | significantly better | –
2 | CC[C@@]1(O)C(=O)OCc2c1cc1n(c2=O)Cc2c-1nc1cc(F)c(C)c3c1c2[C@@H](NC(=O)COCNC(=O)CNC(=O)[C@H](Cc1ccccc1)NC(=O)CNC(=O)CNC(=O)CN1CCOCCN(C(=O)CCN2C(=O)C=CC2=O)CCOCC1)CC3 [Example 22] ({Propanoyl(3-maleimido)}-[X1]GGFG[NHCH2OCH2CO]-Exatecan) | 4.14 | 0.76% | 4.12 | 0.81% | 4.15 | 0.78% | significantly better | 4.14 | 0.00% | significantly better | 0.76% | significantly better | –
3 | C=C1C[C@@H]2CC[C@@]34C[C@H]5OC6C(O[C@H]7CC[C@H](CC(=O)C[C@@H]8[C@@H](OC)[C@@H](C[C@H](O)CNC(=O)CNC(=O)[C@H](Cc9ccccc9)NC(=O)CNC(=O)CN9CCOCCOCCN(C(=O)CCCCCN%10C(=O)C=CC%10=O)CCOCCOCC9)O[C@H]8C[C@H]8O[C@@H](CC[C@@H]1O2)C[C@@H](C)C8=C)O[C@@H]7[C@@H]6O3)[C@H]5O4 [Example 40] | 3.78 | 1.29% | 3.75 | 1.31% | 3.74 | 1.41% | – | 3.78 | 4.27% | – | 1.29% | – | significantly better
